{"source": "IntAct's records for PubMed 18480252", "parents": {"B1": {"name": "[PIN+] prion protein RNQ1 (Saccharomyces cerevisiae), P25367 (parent)", "chain": "MDTDKLISEAESHFSQGNHAEAVAKLTSAAQSNPNDEQMSTIESLIQKIAGYVMDNRSGGSDASQDRAAGGGSSFMNTLMADSKGSSQTQLGKLALLATVMTHSSNKGSSNRGFDVGTVMSMLSGSGGGSQSMGASGLAALASQFFKSGNNSQGQGQGQGQGQGQGQGQGQGSFTALASLASSFMNSNNNNQQGQNQSSGGSSFGALASMASSFMHSNNNQNSNNSQQGYNQSYQNGNQNSQGYNNQQYQGGNGGYQQQQGQSGGAFSSLASMAQSYLGGGQTQSNQQQYNQQGQNNQQQYQQQGQNYQHQQQGQQQQQGHSSSFSALASMASSYLGNNSNSNSSYGGQQQANEYGRPQQNGQQQSNEYGRPQYGGNQNSNGQHESFNFSGNFSQQNNNGNQNRY", "partner": "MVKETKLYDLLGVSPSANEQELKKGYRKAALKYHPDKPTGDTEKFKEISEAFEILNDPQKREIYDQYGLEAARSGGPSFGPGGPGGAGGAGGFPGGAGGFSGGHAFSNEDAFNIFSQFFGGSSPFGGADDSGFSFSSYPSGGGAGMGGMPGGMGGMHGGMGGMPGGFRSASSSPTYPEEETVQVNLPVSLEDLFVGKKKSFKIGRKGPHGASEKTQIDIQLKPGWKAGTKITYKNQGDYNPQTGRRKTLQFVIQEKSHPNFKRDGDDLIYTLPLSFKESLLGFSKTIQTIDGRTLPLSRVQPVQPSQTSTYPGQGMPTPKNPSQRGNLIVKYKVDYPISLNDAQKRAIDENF"}}}
{"variants_of": "B1", "conditions": "with sis1_yeast SIS1, P25294"}
{"variant": "MDTDKLISEAESHFSQGNHAEAVAKLTSAAQSNPNDEQMSTIESLIQKIAGYVMDNRSGGSDASQDRAAGGGSSFMNTLMADSKGSSQTQLGKAALLATVMTHSSNKGSSNRGFDVGTVMSMLSGSGGGSQSMGASGLAALASQFFKSGNNSQGQGQGQGQGQGQGQGQGQGSFTALASLASSFMNSNNNNQQGQNQSSGGSSFGALASMASSFMHSNNNQNSNNSQQGYNQSYQNGNQNSQGYNNQQYQGGNGGYQQQQGQSGGAFSSLASMAQSYLGGGQTQSNQQQYNQQGQNNQQQYQQQGQNYQHQQQGQQQQQGHSSSFSALASMASSYLGNNSNSNSSYGGQQQANEYGRPQQNGQQQSNEYGRPQYGGNQNSNGQHESFNFSGNFSQQNNNGNQNRY", "note": "[L94A]", "effect of a mutation on the interaction": "decreasing interaction"}
